The record followed here is article PMC3077247.

The assay concerns the target HECT domain of Nedd4, Y605A (as used for SPR) (UniProt P46934). Briefly: SPR. Background: SPR reads the build-up and loss of mass on a sensor chip optically.

Sequence of HECT domain of Nedd4, Y605A (as used for SPR) (P46934 938-1319 Y1024A): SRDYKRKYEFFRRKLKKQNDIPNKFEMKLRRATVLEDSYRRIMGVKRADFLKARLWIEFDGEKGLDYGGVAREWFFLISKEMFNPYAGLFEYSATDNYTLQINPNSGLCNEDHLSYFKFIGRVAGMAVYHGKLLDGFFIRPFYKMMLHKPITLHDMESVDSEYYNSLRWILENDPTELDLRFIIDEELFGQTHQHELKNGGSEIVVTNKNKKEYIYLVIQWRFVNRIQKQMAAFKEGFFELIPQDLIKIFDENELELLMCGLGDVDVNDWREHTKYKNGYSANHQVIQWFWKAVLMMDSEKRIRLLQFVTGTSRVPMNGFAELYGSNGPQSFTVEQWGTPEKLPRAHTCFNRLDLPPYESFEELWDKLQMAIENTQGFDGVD

In the case of “ubiquitin (monomeric) (from UniProt P0CG48 1-76) (natural protein)”, the fold decrease in binding against wild-type HECT^Nedd4 turned out to be 20 fold.
